Measured values taken from paper doi:10.1101/2020.09.30.318972 (bioRxiv, 2020).

Target: soluble prefusion-stabilized trimeric SARS-CoV-2 spike protein (SARS-CoV-2, Wuhan-Hu-1 (MN908947.3), UniProt P0DTC2, stabilised)
Experiment: cryo-EM structure

B1: LY-CoV555 Fab (Fab, V domains shown)
VH: QVQLVQSGAEVKKPGSSVKVSCKASGGTFSNYAISWVRQAPGQGLEWMGRIIPILGIANYAQKFQGRVTITADKSTSTAYMELSSLRSEDTAVYYCARGYYEARHYYYYYAMDVWGQGTAVTVSS
VL: not shown
  binding result: binds
